Legend:
[1] = molecular target: T1, In house human CD8A-Fc (human, UniProt P01732 22-182, limits assumed); assay: SPR (ProteOn), captured hCD8A-Fc
T1 construct: Captured on goat anti-human Fc on a ProteOn GLC chip; also called hCD8A-Fc; recombinant human CD8 alpha; not shown: linker with flag (and polyhistidine) tag and Fc of human IgG1

[2] = molecular target: T2, cynomolgus monkey CD8A on primary cynomolgus monkey CD8+ T cells (cynomolgus monkey, UniProt P01732 23-235 (human entry)); assay: flow cytometry, cyno CD8+ T cells, 2 uM FN3
T2 construct: also called Cyno CD8alpha

[3] = molecular target: T3, human CD8 alpha (CD8A) on primary human CD8+ T cells (human, UniProt P01732 22-235); assay: flow cytometry, human CD8+ T cells, 2 uM FN3
T3 construct: whole, on cells; also called hCD8A
T3 sequence (P01732 22-235): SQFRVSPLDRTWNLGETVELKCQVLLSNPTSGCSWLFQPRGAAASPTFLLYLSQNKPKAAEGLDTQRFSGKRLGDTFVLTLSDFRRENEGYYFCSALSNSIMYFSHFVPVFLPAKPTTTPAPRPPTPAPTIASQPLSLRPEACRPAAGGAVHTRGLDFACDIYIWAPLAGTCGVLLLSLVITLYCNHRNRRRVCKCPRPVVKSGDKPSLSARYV

[4] = molecular target: T2, cynomolgus monkey CD8A on primary …; assay: flow cytometry, cyno CD8+ T cells, 0.2 uM FN3
[5] = molecular target: T3, human CD8 alpha (CD8A) on primary human …; assay: flow cytometry, human CD8+ T cells, 0.2 uM FN3
[6] = molecular target: T4, human CD8A-Fc (in house) (human, UniProt P01732 22-182, limits assumed); assay: SPR (ProteOn), captured hCD8A-Fc
T4 construct: captured by goat anti-human Fc on the ProteOn chip; also called hCD8A-Fc; recombinant human CD8 alpha; not shown: linker/tag and Fc of human IgG1

[7] = molecular target: T5, cynomolgus monkey CD8 alpha on primary cynomolgus CD8+ T cells (cynomolgus monkey, UniProt P01732 23-235 (human entry)); assay: flow cytometry, cyno CD8+ T cells
T5 construct: also called Cyno CD8alpha; cyno CD8A
Procedure: (§1) Binding of the 190 ELISA hits to human and cynomologous monkey primary CD8 T cells was assessed by flow cytometry. The FN3 domain molecules were diluted to 2 μM and 0.2 μM in PBS and incubated with human or cynomologous monkey CD8+ T cells in 96-well format. After 1 hour at 4 C, the cells were washed once with PBS and then resuspended with an anti-FN3 domain antibody (PAB25) solution. Following this incubation, the cells were washed twice with PBS and a PE conjugated secondary antibody and a viability dye were added. Finally, cells were washed and resuspended in PBS for flow cytometric analysis using a BD Canto Instrument. Cells were gating on live cells and median fluorescence intensity of the bound Centyrins (PE channel) was calculated using Cytobank software.

[8] = molecular target: T6, human CD8 alpha (CD8A) on primary human CD8+ T cells (human, UniProt P01732 22-235); assay: flow cytometry, human CD8+ T cells
T6 construct: whole, on cells; also called hCD8A
Procedure: as §1
T6 sequence (P01732 22-235): as above

T2 sequence (P01732 other isoform, or with tags, fused parts or gaps limits assumed): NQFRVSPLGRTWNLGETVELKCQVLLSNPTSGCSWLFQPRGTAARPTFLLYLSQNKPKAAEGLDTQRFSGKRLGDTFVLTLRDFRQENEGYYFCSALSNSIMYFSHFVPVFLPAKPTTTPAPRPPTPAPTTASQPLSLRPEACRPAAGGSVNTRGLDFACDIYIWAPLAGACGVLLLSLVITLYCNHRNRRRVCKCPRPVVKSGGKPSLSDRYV
T5 sequence (P01732 other isoform, or with tags, fused parts or gaps limits assumed): as above
T1 sequence (P01732 22-182 limits assumed): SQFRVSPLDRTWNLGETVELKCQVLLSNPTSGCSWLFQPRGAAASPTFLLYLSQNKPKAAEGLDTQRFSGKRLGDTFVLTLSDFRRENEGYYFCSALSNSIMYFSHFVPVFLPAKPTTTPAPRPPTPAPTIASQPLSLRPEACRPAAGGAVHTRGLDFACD
T4 sequence (P01732 22-182 limits assumed): as above

B1: P283BR9P1363_D11 (designed binder)
chain: LPAPKNLVVSRVTEDSARLSWNKKHDGQPTFDSFLIQYQESEKVGEAIVLTVPGSERSYDLTGLKPGTEYTVSIYGVDVVYEGSYPASSNPLSAIFTT
notes: FN3 domain
koff [1]: 0.000495 s⁻¹
Cyno T-cell Binding 2 uM (MFI) [2]: 20600 MFI
Human T-cell Binding 2 uM (MFI) [3]: 8690 MFI
Cyno T-cell Binding 0.2 uM (MFI) [4]: 11600 MFI
Human T-cell Binding 0.2 uM (MFI) [5]: 2890 MFI

B2: P283AR9P1362_C6 (designed binder)
chain: LPAPKNLVVSRVTEDSARLSWYPSDPPFDSFLIQYQESEKVGEAIVLTVPGSERSYDLTGLKPGTEYTVSIYGVPNYHSRRSYYYSNPLSAIFTT
notes: FN3 domain
koff [1]: 0.00109 s⁻¹
Cyno T-cell Binding 2 uM (MFI) [2]: 17500 MFI
Human T-cell Binding 2 uM (MFI) [3]: 16000 MFI
Cyno T-cell Binding 0.2 uM (MFI) [4]: 5690 MFI
Human T-cell Binding 0.2 uM (MFI) [5]: 4150 MFI

B3: P283FR9P1366_H11 (designed binder)
chain: LPAPKNLVVSRVTEDSARLSWTAPDAAFDSFQIQYLETAPDGEAIVLTVPGSERSYDLTGLKPGTEYYVWIPGVKGGAFSPLSAIFTT
notes: FN3 domain
koff [6]: 0.00139 s⁻¹
Cyno T-cell Binding 0.2 uM (MFI) [7]: 3660 MFI
Cyno T-cell Binding 2 uM (MFI) [7]: 37400 MFI
Human T-cell Binding 0.2 uM (MFI) [8]: 2330 MFI
Human T-cell Binding 2 uM (MFI) [8]: 18900 MFI

B4: P283AR9P1362_B2 (designed binder)
chain: LPAPKNLVVSRVTEDSARLSWAKHPNSFDSFLIQYQESEKVGEAIVLTVPGSERSYDLTGLKPGTEYTVSIYGVDVVVNELNNPLFSNPLSAIFTT
notes: FN3 domain
koff [1]: 0.00016 s⁻¹
Cyno T-cell Binding 2 uM (MFI) [2]: 38800 MFI
Human T-cell Binding 2 uM (MFI) [3]: 13600 MFI
Cyno T-cell Binding 0.2 uM (MFI) [4]: 6480 MFI
Human T-cell Binding 0.2 uM (MFI) [5]: 3500 MFI

B5: P282FR9P1361_F7 (designed binder)
chain: LPAPKNLVVSRVTEDSARLSWTAPDAAFDSFPIWYREYATGEAIVLTVPGSERSYDLTGLKPGTEYDVVITGVKGGYPSYPLSAIFTT
notes: FN3 domain
koff [1]: 0.00114 s⁻¹
Cyno T-cell Binding 2 uM (MFI) [2]: 1700 MFI
Human T-cell Binding 2 uM (MFI) [3]: 7000 MFI
Cyno T-cell Binding 0.2 uM (MFI) [4]: 353 MFI
Human T-cell Binding 0.2 uM (MFI) [5]: 1110 MFI

B6: P283BR9P1363_A8 (designed binder)
chain: LPAPKNLVVSRVTEDSARLSWVRSDTARFFDSFLIQYQESEKVGEAIVLTVPGSERSYDLTGLKPGTEYTVSIYGVDVKYDIDSRPISSNPLSAIFTT
notes: FN3 domain
koff [1]: 0.000353 s⁻¹
Cyno T-cell Binding 2 uM (MFI) [2]: 24200 MFI
Human T-cell Binding 2 uM (MFI) [3]: 11300 MFI
Cyno T-cell Binding 0.2 uM (MFI) [4]: 3450 MFI
Human T-cell Binding 0.2 uM (MFI) [5]: 2540 MFI

B7: P283AR9P1362_D2 (designed binder)
chain: LPAPKNLVVSRVTEDSARLSWQRPKSGFFDSFLIQYQESEKVGEAIVLTVPGSERSYDLTGLKPGTEYTVSIYGVDVKYDIDSRPISSNPLSAIFTT
notes: FN3 domain
koff [1]: 0.000253 s⁻¹
Cyno T-cell Binding 2 uM (MFI) [2]: 17200 MFI
Human T-cell Binding 2 uM (MFI) [3]: 8650 MFI
Cyno T-cell Binding 0.2 uM (MFI) [4]: 5330 MFI
Human T-cell Binding 0.2 uM (MFI) [5]: 2760 MFI

B8: P283AR9P1362_H11 (designed binder)
chain: LPAPKNLVVSRVTEDSARLSWPKIQGQHFDSFLIQYQESEKVGEAIVLTVPGSERSYDLTGLKPGTEYTVSIYGVDVKYDIDSRPISSNPLSAIFTT
notes: FN3 domain
koff [1]: 0.00018 s⁻¹
Cyno T-cell Binding 2 uM (MFI) [2]: 11600 MFI
Human T-cell Binding 2 uM (MFI) [3]: 5730 MFI
Cyno T-cell Binding 0.2 uM (MFI) [4]: 3660 MFI
Human T-cell Binding 0.2 uM (MFI) [5]: 2270 MFI

B9: P282FR9P1361_H4 (designed binder)
chain: LPAPKNLVVSRVTEDSARLSWTAPDAAFDSFGIWYAEYGYSGEAIVLTVPGSERSYDLTGLKPGTEYDVAIYGVKGGSPSYPLSAIFTT
notes: FN3 domain
koff [1]: 0.000317 s⁻¹
Cyno T-cell Binding 2 uM (MFI) [2]: 26300 MFI
Human T-cell Binding 2 uM (MFI) [3]: 13100 MFI
Cyno T-cell Binding 0.2 uM (MFI) [4]: 2500 MFI
Human T-cell Binding 0.2 uM (MFI) [5]: 3740 MFI

B10: P283BR9P1363_C4 (designed binder)
chain: LPAPKNLVVSRVTEDSARLSWPIVNTPLHFDSFLIQYQESEKVGEAIVLTVPGSERSYDLTGLKPGTEYTVSIYGVDVQYTATGQPERSNPLSAIFTT
notes: FN3 domain
koff [1]: 0.000409 s⁻¹
Cyno T-cell Binding 2 uM (MFI) [2]: 23400 MFI
Human T-cell Binding 2 uM (MFI) [3]: 9070 MFI
Cyno T-cell Binding 0.2 uM (MFI) [4]: 3270 MFI
Human T-cell Binding 0.2 uM (MFI) [5]: 2250 MFI

B11: P283AR9P1362_B10 (designed binder)
chain: LPAPKNLVVSRVTEDSARLSWKRRWDSFDSFLIQYQESEKVGEAIVLTVPGSERSYDLTGLKPGTEYTVSIYGVDVEWFNGLPHHSNPLSAIFTT
notes: FN3 domain
koff [1]: 0.000139 s⁻¹
Cyno T-cell Binding 2 uM (MFI) [2]: 35700 MFI
Human T-cell Binding 2 uM (MFI) [3]: 15400 MFI
Cyno T-cell Binding 0.2 uM (MFI) [4]: 8380 MFI
Human T-cell Binding 0.2 uM (MFI) [5]: 3700 MFI

B12: P282FR9P1361_E12 (designed binder)
chain: LPAPKNLVVSRVTEDSARLSWTAPDAAFDSLGITYWESPYAGEAIVLTVPGSERSYDLTGLKPGTEYGVFILGVKGGYPSAPLSAIFTT
notes: FN3 domain
koff [1]: 0.00109 s⁻¹
Cyno T-cell Binding 2 uM (MFI) [2]: 63500 MFI
Human T-cell Binding 2 uM (MFI) [3]: 15800 MFI
Cyno T-cell Binding 0.2 uM (MFI) [4]: 15100 MFI
Human T-cell Binding 0.2 uM (MFI) [5]: 1130 MFI

B13: P282FR9P1361_G9 (designed binder)
chain: LPAPKNLVVSRVTEDSARLSWTAPDAAFDSFGITYWESPYAGEAIVLTVPGSERSYDLTGLKPGTEYGVFILGVKGGYPSAPLSAIFTT
notes: FN3 domain
koff [1]: 0.00653 s⁻¹
Cyno T-cell Binding 2 uM (MFI) [2]: 3750 MFI
Human T-cell Binding 2 uM (MFI) [3]: 859 MFI
Cyno T-cell Binding 0.2 uM (MFI) [4]: 666 MFI
Human T-cell Binding 0.2 uM (MFI) [5]: 297 MFI

B14: P283DR9P1364_E8 (designed binder)
chain: LPAPKNLVVSRVTEDSARLSWTAPDAAFDSFSIAYPEWPVHGEAIVLTVPGSERSYDLTGLKPGTEYFVIIYGVKGGVLSEPLSAIFTT
notes: FN3 domain
koff [6]: 0.000756 s⁻¹
Cyno T-cell Binding 0.2 uM (MFI) [7]: 5510 MFI
Cyno T-cell Binding 2 uM (MFI) [7]: 59300 MFI
Human T-cell Binding 0.2 uM (MFI) [8]: 1180 MFI
Human T-cell Binding 2 uM (MFI) [8]: 14300 MFI

B15: P283DR9P1364_B11 (designed binder)
chain: LPAPKNLVVSRVTEDSARLSWTAPDAAFDSFYISYPEWEQLGEAIVLTVPGSERSYDLTGLKPGTEYFVVIYGVKGGALSAPLSAIFTT
notes: FN3 domain
koff [6]: 0.0013 s⁻¹
Cyno T-cell Binding 0.2 uM (MFI) [7]: 1590 MFI
Cyno T-cell Binding 2 uM (MFI) [7]: 22900 MFI
Human T-cell Binding 0.2 uM (MFI) [8]: 451 MFI
Human T-cell Binding 2 uM (MFI) [8]: 4260 MFI

B16: P283DR9P1364_A4 (designed binder)
chain: LPAPKNLVVSRVTEDSARLSWTAPDAAFDSFYIAYPEWPVQGEAIVLTVPGSERSYDLTGLKPGTEYFVIIYGVKGGDWSEPLSAIFTT
notes: FN3 domain
koff [6]: 0.00109 s⁻¹
Cyno T-cell Binding 0.2 uM (MFI) [7]: 6650 MFI
Cyno T-cell Binding 2 uM (MFI) [7]: 48300 MFI
Human T-cell Binding 0.2 uM (MFI) [8]: 1024 MFI
Human T-cell Binding 2 uM (MFI) [8]: 9490 MFI

B17: P283DR9P1364_B4 (designed binder)
chain: LPAPKNLVVSRVTEDSARLSWTAPDAAFDSFAISYPEWPPPGEAIVLTVPGSERSYDLTGLKPGTEYWVIILGVKGGDQSWPLSAIFTT
notes: FN3 domain
koff [6]: 0.000109 s⁻¹
Cyno T-cell Binding 0.2 uM (MFI) [7]: 20200 MFI
Cyno T-cell Binding 2 uM (MFI) [7]: 96500 MFI
Human T-cell Binding 0.2 uM (MFI) [8]: 6060 MFI
Human T-cell Binding 2 uM (MFI) [8]: 45500 MFI

B18: P283DR9P1364_C10 (designed binder)
chain: LPAPKNLVVSRVTEDSARLSWTAPDAAFDSFQIAYPEWPKDGEAIVLTVPGSERSYDLTGLKPGTEYAVFIWGVKGGVYSNPLSAIFTT
notes: FN3 domain
koff [6]: 0.00129 s⁻¹
Cyno T-cell Binding 0.2 uM (MFI) [7]: 2710 MFI
Cyno T-cell Binding 2 uM (MFI) [7]: 34200 MFI
Human T-cell Binding 0.2 uM (MFI) [8]: 649 MFI
Human T-cell Binding 2 uM (MFI) [8]: 4940 MFI

B19: P283DR9P1364_B1 (designed binder)
chain: LPAPKNLVVSRVTEDSARLSWTAPDAAFDSFYITYPEIPLGGEAIVLTVPGSERSYDLTGLKPGTEYFVVIYGVKGGLLSSPLSAIFTT
notes: FN3 domain
koff [6]: 0.00156 s⁻¹
Cyno T-cell Binding 0.2 uM (MFI) [7]: 746 MFI
Cyno T-cell Binding 2 uM (MFI) [7]: 8620 MFI
Human T-cell Binding 0.2 uM (MFI) [8]: 666 MFI
Human T-cell Binding 2 uM (MFI) [8]: 1480 MFI

B20: P283DR9P1364_A7 (designed binder)
chain: LPAPKNLVVSRVTEDSARLSWTAPDAAFDSFRIAYPEWPVRGDAIVLTVPGSERSYDLTGLKPGTEYWVIIQGVKGGTDSFPLSAIFTT
notes: FN3 domain
koff [6]: 0.00197 s⁻¹
Cyno T-cell Binding 0.2 uM (MFI) [7]: 2640 MFI
Cyno T-cell Binding 2 uM (MFI) [7]: 39900 MFI
Human T-cell Binding 0.2 uM (MFI) [8]: 435 MFI
Human T-cell Binding 2 uM (MFI) [8]: 8980 MFI

B21: P283DR9P1364_D8 (designed binder)
chain: LPAPKNLVVSRVTEDSARLSWTAPDAAFDSFQIAYPETPIQGEAIVLTVPGSERSYDLTGLKPGTEYFVIIHGVKGGITSFPLSAIFTT
notes: FN3 domain
koff [6]: 0.00661 s⁻¹
Cyno T-cell Binding 0.2 uM (MFI) [7]: 365 MFI
Cyno T-cell Binding 2 uM (MFI) [7]: 2480 MFI
Human T-cell Binding 0.2 uM (MFI) [8]: 244 MFI
Human T-cell Binding 2 uM (MFI) [8]: 656 MFI

Source: patent publication US20210032312A1 (Janssen / Centocor, published 2021)
